Experimental data published in article PMC2844784 (Cell host & microbe, 2010).

Molecular target: T1, recombinant Set7/9-KMT7 (UniProt Q8WTS6 1-366)
T1 sequence (looked up): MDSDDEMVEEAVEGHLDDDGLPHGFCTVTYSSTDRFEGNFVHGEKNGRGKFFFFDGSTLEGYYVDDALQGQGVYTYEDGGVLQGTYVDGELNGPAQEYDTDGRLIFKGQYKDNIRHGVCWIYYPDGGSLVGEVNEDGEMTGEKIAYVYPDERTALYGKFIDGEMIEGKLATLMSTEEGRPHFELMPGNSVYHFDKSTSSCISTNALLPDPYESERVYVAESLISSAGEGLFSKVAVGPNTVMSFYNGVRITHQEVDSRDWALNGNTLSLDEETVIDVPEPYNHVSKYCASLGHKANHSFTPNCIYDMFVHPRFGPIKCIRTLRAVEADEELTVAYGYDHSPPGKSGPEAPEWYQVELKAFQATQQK
Experiment: in vitro binding reaction

B1: full-length synthetic Tat protein (aa 1-72) (natural protein)
chain: MEPVDPRLEPWKHPGSQPKTACTNCYCKKCCFHCQVCFITKALGISYGRKKRRQRRRAHQNSQTHQASLSKQ
binding result: binds
